assay: yeast display, Sf9 membrane polyspecificity reagent, FACS + sequencing; frameworks hold sequencing errors
Outline: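 Nanobodies from a synthetic yeast display library (Saccharomyces cerevisiae BJ5465), induced 36–48 hours with galactose, were stained 1 hour at 4 °C with 10% biotinylated, detergent-solubilized Sf9 membrane reagent, enriched on streptavidin microbeads, then FACS-sorted. Anti-HA (expression) and streptavidin (reagent binding) fluorescence set low and high (top ~1%) gates. Polyreactivity labels come from the gate of origin. Genes were colony-PCR amplified, MiSeq 2 × 250 sequenced and filtered by CDR length.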

Row | Sequence | polyreactivity (PSR sort gate)
1 | QVQLVESGGGLVQAGGSLRLSCAASGSIFKYYAMGWYRQAPGKERELVAAISSNGGRTYYADSVKGRFTISRDNAKNTVYLQMNSLKPEDTAVYYCNVVVKGAWDYYPYDYWGQGTQVTVSS | high polyreactivity
2 | QVQLVESGGGLVQAGGSLRLSCAASGSIFKYYAMGWYRQAPGKERELVAAISSSGNTYYADSVKGRFTISRDNAKNTVYLQMNSLKPEDTAVYYCNAYRPGEMDYWGQGTQVTVSS | high polyreactivity
3 | QVQLVESGGGLVQAGGSLRLSCAASGSIFKYYAMGWYRQARGKERELVAVITSGGSTYYADSVKGLFTISRDNAKNTVYLQMNSLKPEDTAVYYCAAGVRAYNWGEYDYWGQGTQVTVSS | low polyreactivity
4 | QVQLVESGGGLVQAGGSLRLSCAASGSIFLANAMGWYRQAPGKERELVAGISSSVTTNYADSVKGRFTISRDNAKNTVYLQMNSLKPEDTAVYYCNTVLRVQFYWGQGTQVSVSS | low polyreactivity
5 | QVQLVESGGGLVQAGGSLRLSCAASGSIFLAYAMGWYRQAPGKEMELVATISVSGTTTYYADSVKGRFTISRDNAKNTVYLQMNSLKPEDTAVYYCAADQQDGLWDYQDWYDYWGQGTQVTVSS | low polyreactivity
6 | QVQLVESGGGLVQAGGSLRLSCAASGSIFLDNAMGWYRQAPGKEREFVATISWRTGRTYYADSVKGRFTISRDNAKNTVYLHMNSLKPEDTAVYYCAVDTVRNHRMDYWGQGTQVTVSS | low polyreactivity
7 | QVQLVESGGGLVQAGGSLRLSCAASGSIFLDNAMGWYRQAPGKERELVAAISWSAGSTYYADSVKGRFTISRDNAKNTVYLQMNSLKPEDTAVYYCAAESYPGWYWDDYWGQGTQVTVSS | high polyreactivity
8 | QVQLVESGGGLVQAGGSLRLSCAASGSIFLFNAMGWNRQAPGKERELVAANTSSGTRTYYADSVKGRFTISRDNAKNTVYLQMNSMKPEDTAVYYCNAVGPVDSYHRYYYWGQGTQVTVSS | low polyreactivity
9 | QVQLVESGGGLVQAGGSLRLSCAASGSIFLFNAMGWYRQAPGKERELVAAINRDDSTYYADSVKGRFTISRDNAKNTVYLQMNSLKPEDTAVYYCAAPVLHASYGYGYWGQGTQGTVSS | low polyreactivity
10 | QVQLVESGGGLVQAGGSLRLSCAASGSIFLGNAMGWSRQAPGKERELVAAISSITGRTYYADSVKGRFTISRDNAKNTVYLQMNSLKPEDTAVYYCNKVKRSFIVNTDDYWGQGTQVTVSS | high polyreactivity
11 | QVQLVESGGGLVQAGGSLRLSCAASGSIFLGNAMGWYRQAPGKERELVAAITSRGGRTYYADSVKGRFTISRDNAKNTVYLLMNSLKPEDTAVYYFAVLGFGALDFDSWGQGTEVTVSS | high polyreactivity
12 | QVQLVESGGGLVQAGGSLRLSCAASGSIFLGNAMGWYSPAPGKERELVAAISYSGGSTYYADSVKGRFTISRDNAKNTVYLQMNSLKPEDTDVYYCAADRSSQFDLDYWGQGTRVTVSS | low polyreactivity
13 | QVQLVESGGGLVQAGGSLRLSCAASGSIFLGSVMVWYRQAPGKERELVATITGNGDGTYYADSVKGRFTISRDKAKNTVYLQMNSLKPADTAVYYCAADRSGPGYDYWGQGTQVTVSS | low polyreactivity
14 | QVQLVESGGGLVQAGGSLRLSCAASGSIFLKYTMGWYRQAPGKERELVAAITSGGTTNYADSVKGRFTISRDNAKNTVYLQMNSLKPEDTAVYYCARDSYQLGLIRDPLEYDYWGQGTQVTVSS | low polyreactivity
15 | QVQLVESGGGLVQAGGSLRLSCAASGSIFLKYVMGWYRQATGKEMELVAAISSAGGTYYADSVKGRFTISRDNEKYTVYLQMICLKPEDTAVYYCGRRPYRGSYAYDYWGQGSQVTVSS | low polyreactivity
16 | QVQLVESGGGLVQAGGSLRLSCAASGSIFLLNAMGWYRQAPGKERELVAVISSGTGSTYYADSVKGRFTISRDTAKNTVYLQMNSLKPEDTAVYYCAAERDAVLFFVGPYYITLDYDYWGQGTQVTVSS | low polyreactivity
17 | QVQLVESGGGLVQAGGSLRLSCAASGSIFLNNAMGWYSQAPGKERELVAAITRNVGSTYYADSVKGRFTISRDNAKNTVYLQMNSMKPEATAVYYCAADRRRRYDYWGQGTQVTVSS | low polyreactivity
18 | QVQLVESGGGLVQAGGSLRLSCAASGSIFLPYAMGWYRQAPGKERELVATIRGRGGSTYYADSVKGRFTISRDNAKITVYLLMNSPKPEDTAVYYCAAKNGDRYARGYWGQGTQVTVSS | high polyreactivity
19 | QVQLVESGGGLVQAGGSLRLSCAASGSIFLQYAMGWYRQAPGKERELVAAISWSGGSTYYADSVKGRFTISRDNAKNTVYVQMNSLKPEDTAVYYCAAPITPYRHYRMDYWGQGTQVTVSS | low polyreactivity
20 | QVQLVESGGGLVQAGGSLRLSCAASGSIFLQYTMGWYRQAPGKERELVAAITESDGSTYYADSVKGRFTISRDNAKNTVYLQMNSLKPEDTAVYYCAADVVYFKYWDKYDYWGQGTQVTVSS | low polyreactivity
21 | QVQLVESGGGLVQAGGSLRLSCAASGSIFLRNAMGWYRQAPGKERELVAAITNSSGSTYYADSVKGRFTISRDNAKNTVYLQMNSLKPEDTAVYYCAATSRSSRRYYYWGQGTQVTVSS | high polyreactivity
22 | QVQLVESGGGLVQAGGSLRLSCAASGSIFLRYAMGWYRQAPGKERELVAAITTGGGSTYYADSVKGRFTISRDNAKNTDYLQMNSLKPVDTAVYYCAKRAQYHWRGRDDYSYYYWGQGTQVTVSS | low polyreactivity

Row | Sequence | polyreactivity (PSR sort gate)
23 | QVQLVESGGGLVQAGGSLRLSCAASGSIFLSNAMGWYRQAPGKEREMVAIRKSTGSTYYADSVKGRFTISRDNAKNTVYLQMYSLKPEDTAVYYCNAGGWNAYRYRAYDYGGQGTQVTVSS | high polyreactivity
24 | QVQLVESGGGLVQAGGSLRLSCAASGSIFLVNAKGCYRQAPGKARELVAAITYGGDSTYYADSVKGRFTISRDNAKNTVYLQMNSLKPEDTAVYYCAADAWVGWHDEYDYWGQGTQVTVSS | low polyreactivity
25 | QVQLVESGGGLVQAGGSLRLSCAASGSIFLVNAMGWSRQAPGKERELVASITWRGGRTYYAASVKGRFTISRDNAKNTVYLQMNSLKPEDTAVYYCAARNYRTGERLRYDYWGQGTQVTVSS | low polyreactivity
26 | QVQLVESGGGLVQAGGSLRLSCAASGSIFLVNAMGWYRQAPGKERELVAAIRGSGGSTYYADSVKGRFTISRDNAKNTVYLQMNSLKPEDTAVYYCAADIWRLAYDYWGQGTQVTVSS | low polyreactivity
27 | QVQLVESGGGLVQAGGSLRLSCAASGSIFLWNAMGGYRQAPGKERDLVAAISSSGGSTYYADSVKGRFTISRDNAKNTVYLQMNSLKPEDTAVYYCAAVSRSYYNSYNYWGQGTQVTVSS | high polyreactivity
28 | QVQLVESGGGLVQAGGSLRLSCAASGSIFLWNAMGWYRQAPGKERELVAAISSSGGSTYYADSVKGRFTISRDNAKNTVYLQMNSLKPEDTAVYYCAAVSRSYYNSYNYWGQGTQVTVSS | high polyreactivity
29 | QVQLVESGGGLVQAGGSLRLSCAASGSIFLWYAMGWYRQAPGKERELVAAIDWSGGSTYYADSVKGRFTISRDNAKNTVYLQMNSLKPEDTAGYDCAAEWGNWYWWDYGYDYYYWGQGTQVTVSS | high polyreactivity
30 | QVQLVESGGGLVQAGGSLRLSCAASGSIFLWYTMGWYRQAPGKERELVAAISRTGGSTYYADSVKGRFTISRDNAKNTVYLQMNSLKPEETAVYYCAASFRPRSSRDYYYGYGYWGQGTQVTVSS | high polyreactivity
31 | QVQLVESGGGLVQAGGSLRLSCAASGSIFLYNAMGWYIQAPGKERELVAAISRSSTSTYYADSVKGRFTISRDNAKNTVYLQMNSLKPEDTAVYYCAARGRVTYWGQGTQVTVSS | high polyreactivity
32 | QVQLVESGGGLVQAGGSLRLSCAASGSIFLYNDMGWYRQAPGKERELVAAITSTGNTNYADSVKGRFTISRDNAKNTVYLQMNSLNRKIPRSITALNVSCTSVVVGYDYWGQGTQVTVSS | low polyreactivity
33 | QVQLVESGGGLVQAGGSLRLSCAASGSIFLYNTMGWYRQAPGKERELVAAISFSGVTTYYADSVKGRFTISRDNAKNTVYLQMNSLKPEDTAVYYCNKYLWKFTNSPLGDYYWGQGTQVTVSS | high polyreactivity
34 | QVQLVESGGGLVQAGGSLRLSCAASGSIFLYNTMGWYRQAPGKERELVAAITSGGNTNYADSVKGRFTISRDNAKNTVYLQMNSLKPEDTAVYYCNVDLKAWLPDGGSVDYWGQGTQVTVSS | low polyreactivity
35 | QVQLVESGGGLVQAGGSLRLSCAASGSIFLYNTMGWYRQAPGKERELVAAITYSGGSTYYADSVKGRFTISRDYAKNTVYLQMNSLKPEDTAVDYCNARHYSAYYSWGQGTQVTVSS | high polyreactivity
36 | QVQLVESGGGLVQAGGSLRLSCAASGSIFLYYAMGWYRQAPGKERELVAAISGRAGSTYYADSVKGRFTISRDNAKNTVYLQMNSLKPEDTSVYYCAAGYWHGYPGFKYYWGQGTQVTVSS | low polyreactivity
37 | QVQLVESGGGLVQAGGSLRLSCAASGSIFLYYVMGWYRQAPGKERELVAAITWDGGSTYYADSVKGRFTISRDNAKNTVYLQMNSLKPEDTAVYYCNADTIVAWFDIFEEMDSWGQGTQVTVSS | low polyreactivity
38 | QVQLVESGGGLVQAGGSLRLSCAASGSIFNANAMGWYRPAPGKERELVAGIRSGSSTNYADSVKGRFTISRDNAKNTVYLQMNSLKPEDTAVYYCATEGYWVYGFDDEYWGQGTQVTVSS | low polyreactivity
39 | QVQLVESGGGLVQAGGSLRLSCAASGSIFNANAMGWYRQAPAKERELVAAITPSDGDTYYADSVKGRFTISRDNAKNTVYLQMNSLKPEDTAVYYCAAEDDPGEYEYWGQGTQVTVSS | low polyreactivity
40 | QVQLVESGGGLVQAGGSLRLSCAASGSIFNANTMGWYRQAPGKERELVAVITSGGSTYYADSVKGRFTISRDNAKNTVYLQMNSLKPEDTAVYYCAKDPGPYDYDYWGQGTQVTVSS | low polyreactivity
41 | QVQLVESGGGLVQAGGSLRLSCAASGSIFNDNVMGWYRQAPGKERELVAGISRSGTRTYYADSVKGRFTISRDNAKNTVYLQMNSLKPEDTAVYYCAAAYGQARRYNGSQYGSWGQGTQVTVSS | high polyreactivity
42 | QVQLVESGGGLVQAGGSLRLSCAASGSIFNGYALGWYRQAPGKERELVAAISSGGCTNYADSVKGSFTISRDNAKNTVYLQMNSLKPEDTAVYYCDKDYGYYWPWHYIASYEYDYWGQGTQVTVSS | low polyreactivity
43 | QVQLVESGGGLVQAGGSLRLSCAASGSIFNGYVMGLYRQAPGKERELVAAISSGGRTYYADSVKGRFTISRDNAKNTVYLQMNSLKPEDTAVYYCAADIWYFDYDYWGQGTQVTVSS | high polyreactivity

— the nanobody polyreactivity screen of Harvey et al. (2022)
